The term koff denotes the rate constant with which the complex falls apart.

In test [1] the target is recombinant soluble human CD4 (human) (UniProt P01730). As to the kind of experiment: SPR, sCD4 amine-coupled to sensor chip, antibody flowed over.
For test [2], the target named is native human CD4 on the cell surface (human) (UniProt P01730). As to the kind of experiment: flow cytometry, serial dilutions on SupT1 cells, half-maximal fluorescence. For orientation: A flow cytometer gives signals particle by particle.

As for Leu3a (antibody), in test [1], the koff worked out at 4.2e-05 s⁻¹.
Substance chimeric Leu3a (antibody) displayed a Ka in test [2] of 5e+09 M⁻¹.

(Values after patent publication US20060183195A1.)
